From publication PMC12275187, “CpgD is a phosphoglycerate cytidylyltransferase required for ceramide diphosphoglycerate synthesis” (The Journal of Biological Chemistry, 2025)

B1: CpgD (CCNA_01210) (Caulobacter vibrioides NA1000) (protein)
chain: MQPVKTLILSAGQGKRLSPLTDDRPKCLVELAGRSVLEWQLRHLHQAGVTEAVVVTGFRSDLVEAEVARLSLPGMTVRTLYNPFYSVTDNLATCWLAREEMRGGPFMILNGDTLFEPAIAERLLSAPDAPITVTVDRKAGGYDADDMKVLTDGDALRAIGKTITEYDAESIGFLRFNTEGSALFVKTLEAIMRTSEGLKRWYLSVINEIAQNHDVVRVRSIEGLDWAEMDFPEDLVRNRALTAQWAAQEAEAV
notes: expressed in E. coli ER2566; primers encode N-terminus MQPVKT, C-terminus EAEAV

Legend:
CpgD (CCNA_01210) = target: T1, CpgD (CCNA_01210) (Caulobacter vibrioides, UniProt A0A0H3C7D9); assay: thermal shift assay (GloMelt dye); format: binding; settings: 10 mM nucleotide, 50 mM MgCl2, 50 mM HEPES pH 7.5; Tm change only in figure
T1 construct: expressed in E. coli ER2566; primers encode N-terminus MQPVKT, C-terminus EAEAV
T1 sequence (A0A0H3C7D9 1-253): B1 chain

[1] = substrate: Nc1ccn([C@@H]2O[C@H](COP(=O)(O)OP(=O)(O)OP(=O)(O)O)[C@@H](O)[C@H]2O)c(=O)n1; assay: HPAEC quantification of CDP-glycerate; format: biochemical, Caulobacter vibrioides
Source text: (§1) HPAEC quantification of CDP-glycerate on CpgD (CCNA_01210)

[2] = substrate: O=C(O)[C@@H](CO)OP(=O)(O)O; assay: HPAEC quantification of CDP-glycerate; format: biochemical, Caulobacter vibrioides; settings: 10 mM CTP, 50 mM MgCl2, 50 mM HEPES pH 7.5, 45 min; pH 7.5
Source text: as §1

[3] = substrate: O=C(O)[C@H](CO)OP(=O)(O)O; assay: HPAEC quantification of CDP-glycerate; format: biochemical, Caulobacter vibrioides; settings: 10 mM CTP, 50 mM MgCl2, 50 mM HEPES pH 7.5, 45 min; pH 7.5
Source text: as §1

[4] = substrate: O=C(O)[C@H](O)COP(=O)(O)O; assay: HPAEC quantification of CDP-glycerate; format: biochemical, Caulobacter vibrioides; settings: 10 mM CTP, 50 mM MgCl2, 50 mM Tris pH 8.0, 3.5 h; pH 8.0
Source text: as §1

[5] = 10 mM 3-phosphoglycerate, 50 mM MgCl2, 50 mM Tris pH 8.0, 3.5 h, Michaelis-Menten fit, pH 8.0
[6] = 10 mM D-2-phosphoglycerate, 50 mM MgCl2, 50 mM HEPES pH 7.5, 45 min, Hill fit, cooperative (Hill coefficient 2.5), pH 7.5

| Molecule | Tm (CpgD (CCNA_01210)) | Km [1, 5] [mM] | Vmax [1, 5] [µmol/min/mg] | K0.5 [1, 6] [mM] | Vmax [1, 6] [µmol/min/mg] | Km [2] [mM] | Vmax [2] [µmol/min/mg] | Km [3] [mM] | Vmax [3] [µmol/min/mg] | Km [4] [mM] | Vmax [4] [µmol/min/mg] |
| --- | --- | --- | --- | --- | --- | --- | --- | --- | --- | --- | --- |
| Nc1ncnc2c1ncn2[C@@H]1O[C@H](COP(=O)(O)OP(=O)(O)OP(=O)(O)O)[C@@H](O)[C@H]1O [ATP] | we consistently measured a lower melting temperature in the presence of ATP |  |  |  |  |  |  |  |  |  |  |
| Nc1ccn([C@@H]2O[C@H](COP(=O)(O)OP(=O)(O)OP(=O)(O)O)[C@@H](O)[C@H]2O)c(=O)n1 [CTP] | increase in the melting temperature of the protein was only observed upon addition of CTP |  |  |  |  |  |  |  |  |  |  |
| B1 |  | 4.8 ± 0.9 | 0.4 | 6.4 ± 0.8 | 3.6 | 0.84 ± 0.16 | 3.2 | 3.1 ± 0.6 | 1.5 | 10.9 ± 0.7 | 0.72 |
